From US20110052677A1 (RESEARCH DEVELOPMENT FOUNDATION, published 2011)

Target: T1, native SRPX2 of tEnd1.V^high mouse angiogenic endothelioma cells (mouse, UniProt Q8R054 26-468)
T1 construct: Endogenous protein from a mouse endothelioma cell line; also called native SPRXb 2; Sushi repeat-containing protein, X-linked, 2
T1 sequence (looked up): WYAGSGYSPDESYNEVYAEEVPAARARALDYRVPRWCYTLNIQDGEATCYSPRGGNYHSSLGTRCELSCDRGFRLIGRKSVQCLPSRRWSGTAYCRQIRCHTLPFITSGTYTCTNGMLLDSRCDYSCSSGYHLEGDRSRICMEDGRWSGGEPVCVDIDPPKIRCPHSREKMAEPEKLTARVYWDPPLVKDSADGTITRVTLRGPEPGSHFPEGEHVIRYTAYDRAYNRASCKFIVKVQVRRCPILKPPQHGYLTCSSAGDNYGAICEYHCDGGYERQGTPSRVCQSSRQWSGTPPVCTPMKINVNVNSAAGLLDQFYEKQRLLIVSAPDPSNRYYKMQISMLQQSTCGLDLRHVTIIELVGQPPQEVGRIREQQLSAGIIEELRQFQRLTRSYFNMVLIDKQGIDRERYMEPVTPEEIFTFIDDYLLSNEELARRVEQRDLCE
Test: anti-uPAR immunoprecipitate from tEnd1.V^high lysate, blot re-probed with rabbit anti-SRPX2 antibody
Protocol: Pull down assay of SRPX2 by uPAR—The tEnd1.V^high cells were cell surface biotinylated (0.5 mg/ml of biotin in DPBS) for 15 min, blocked with 10% FCS in PBS and lysed in lysis buffer with addition of 0.5% CHAPS and proteinase inhibitors (Sigma). Pre-clearing was preformed subsequently with the protein G beads (40 μl beads/1 ml lysate) (Protein G Sepharose 4 fast flow, General Electrics) for 3×5 min at RT. Immuno-precipitation was performed by adding sheep anti-uPAR antibodies, precipitated with protein G beads and eluted with a lysis buffer. Immunoblots were preformed with sheep anti-uPAR antibodies and detected by anti-sheep HRP labeled antibodies and visualized by ECL.

B1: vascular urokinase-type plasminogen activator receptor (uPAR) of tEnd1.V^high cells (receptor, mouse, UniProt P35456 24-298, looked up)
chain: LQCMQCESNQSCLVEECALGQDLCRTTVLREWQDDRELEVVTRGCAHSEKTNRTMSYRMGSMIISLTETVCATNLCNRPRPGARGRAFPQGRYLECASCTSLDQSCERGREQSLQCRYPTEHCIEVVTLQSTERSLKDEDYTRGCGSLPGCPGTAGFHSNQTFHFLKCCNYTHCNGGPVLDLQSFPPNGFQCYSCEGNNTLGCSSEEASLINCRGPMNQCLVATGLDVLGNRSYTVRGCATASWCQGSHVADSFPTHLNVSVSCCHGSGCNSPTG
notes: whole, on cells; Native GPI-linked receptor, immunoprecipitated from cell lysate after cell-surface biotinylation; Species is inferred from the mouse cell line; also called vascular uPAR; native uPAR
B1: binds.
